Laboratory results published in patent US20210260070A1, “LYSIN CF-301 RESENSITIZES METHICILLIN-RESISTANT STAPHYLOCOCCUS AUREUA (MRSA) TO PENICILLIN DERIVATIVES AND FIRST GENERATION CEPHALOSPORINS” (priority 2018, published 2021).
In brackets after ≈: the same amount, converted by molar mass.

What was measured:
Type in all cases: cell-based, Staphylococcus aureus
[1] = tested on: MRSA MW2 mutant and control isolates from valvular vegetations; test: MICs of mutant and control isolates from the rabbit IE study
Description: The PlySs2 and oxacillin MICs of each mutant and control strain are shown below in Tables 7 and 8, wherein + indicates the presence of the mutation and—indicates an absence of the mutation.

[2] = tested on: MRSA isolates from valvular vegetations; test: MIC values of MRSA isolates recovered from valvular vegetations after PlySs2 treatment (ex vivo)
Procedure: (§1) An ex vivo analysis was performed on tissue samples recovered after PlySs2 treatment in a standard rabbit model of MRSA infective endocarditis (IE), as disclosed in Xiong et al., Comparative efficacy of telavancin and daptomycin in experimental endocarditis due to multi-clonotype MRSA strains, J. ANTIMIC. CHEMO. (2016); 71(1):2890-94. The standard rabbit IE model was used to confirm the impact of PlySs2 treatment on oxacillin MICs. Four days after treatment with a single-dose of PlySs2 (0.18 mg/kg to 1.4 mg/kg) in the IE model, isolates were recovered from valvular vegetations and plated on TSAB (non-selective condition, Tables 3 and 4) and TSAB supplemented with PlySs2 over a range of concentrations (selective conditions, Tables 5 and 6). MIC values of the MRSA isolates were determined for both PlySs2 and oxacillin. Tables 3 and 4 below show the MICs calculated for PlySs2 and oxacillin, respectively, for valvular vegetations subject to the non-selective conditions.

MRSA strain MW2 = test: 21-day in vitro serial passage resistance assay
Description: Serial passage resistance studies were undertaken to assess the ability of PlySs2 lysin to suppress the emergence of antibiotic resistance when used in combination with oxacillin used to treat S. aureus infections. Methods used to perform serial passage experiments are described in Palmer et al., Genetic basis for daptomycin resistance in enterococci, ANTIMICROBIAL AGENTS AND CHEMOTHERAPY (2011); 55:3345-56 and Berti et al., Altering the Proclivity towards Daptomycin Resistance in Methicillin-Resistant Staphylococcus aureus Using Combinations with Other Antibiotics, ANTIMICROBIAL AGENTS AND CHEMOTHERAPY (2012); 56:5046-53, respectively.
21-day in vitro serial passage resistance assays were performed to determine the impact of PlySs2 (alone) on oxacillin and PlySs2 MIC values and the potential for a “seesaw” effect similar to that previously shown, whereby exposures to daptomycin or vancomycin were accompanied by increased susceptibility (and the potential for resensitization) to β-lactam antibiotics [Renzoni et al., Molecular Bases Determining Daptomycin Resistance-Mediated Resensitizatoin to β-Lactams (Seesaw Effect) in Methicillin-Resistant Staphylococcus aureus, ANTIMICROBIAL AGENTS AND CHEMOTHERAPY (2017) 61(1):e01634-16 and Werth et al., Evaluation of Ceftaroline Activity against Heteroresistant Vancomycin-Intermediate Staphylococcus aureus and Vancomycin-Intermediate Methicillin-Resistant S. aureus Strains in an In Vitro Pharmacokinetic/Pharmacodynamic Model: Exploring the ‘Seesaw Effect’, ANTIMICROBIAL AGENTS AND CHEMOTHERAPY (2013); 57(6):2664-68].
MRSA strain MW2 was serially passaged in triplicate on a daily basis for 21 days using both a 1.1-fold and 2-fold PlySs2 dilution series. As shown in FIGS. 1-3, only modest 2-fold shifts in PlySs2 MIC values were observed. […] This seesaw effect, i.e., a decrease in MRSA's susceptibility to PlySs2 accompanied by a paradoxical increase in susceptibility to oxacillin, indicates PlySs2 lysin's ability to resensitize MRSA to oxacillin. Three MRSA MW2 strain isolates were taken just prior (days 16, 11, and 8 for FIGS. 1-3, respectively) and just after (days 17, 12, and 9 for FIGS. 1-3, respectively) the observed MIC shift for whole genome sequencing.

S. aureus strain MW2 = test: MIC of parental strain
Procedure: as §1

[3] = non-selective, PlySs2 0.18 mg/kg (n = 24)
[4] = non-selective, PlySs2 0.35 mg/kg (n = 24)
[5] = non-selective, PlySs2 0.7 mg/kg (n = 24)
[6] = non-selective, PlySs2 1.4 mg/kg (n = 24)
[7] = selective conditions, PlySs2 0.18 mg/kg (n = 24)
[8] = selective conditions, PlySs2 0.35 mg/kg (n = 24)
[9] = selective conditions, PlySs2 0.7 mg/kg (n = 24)
[10] = selective conditions, PlySs2 1.4 mg/kg (n = 24)

Cc1onc(-c2ccccc2)c1C(=O)N[C@@H]1C(=O)N2[C@@H]1SC(C)(C)[C@@H]2C(=O)O [OXA, oxacillin]
MIC ([1]; Staphylococcus aureus, Control #1 isolate): 64 µg/mL (≈ 159 µM)
MIC ([1]; Staphylococcus aureus, Control #2 isolate): 32 µg/mL (≈ 79.7 µM)
MIC ([1]; Staphylococcus aureus, Control #3 isolate): 64 µg/mL (≈ 159 µM)
MIC ([1]; Staphylococcus aureus, Mutant #1 (hlgCB near, mprF L291I, rlmH K159R, ΔSCCmec)): 1 µg/mL (≈ 2.49 µM)
MIC ([1]; Staphylococcus aureus, Mutant #2 (hlgCB near, graR I158S, rlmH K159R, ΔSCCmec)): 1 µg/mL (≈ 2.49 µM)
Decrease in oxacillin MIC ([1]; two mutants from the valvular vegetations): 32 fold
MIC ([2]; Staphylococcus aureus, MRSA, read-out: Oxacillin MIC after PlySs2 exposure): < 2 µg/mL
Reduction in oxacillin MIC values ([2]; isolates after PlySs2 exposure in rabbit IE, selective conditions): greater than 16 fold
OXA MIC after shift (MRSA strain MW2; MW2, serial passage in PlySs2, after the shift): 16 µg/mL
OXA MIC before shift (MRSA strain MW2; MW2, serial passage in PlySs2, before the shift): 64 µg/mL
OXA MIC fold change (MRSA strain MW2; MW2 after PlySs2 exposure in serial passage): 0.25 fold
MIC (S. aureus strain MW2; Staphylococcus aureus, MW2): 32 µg/mL

B1: PlySs2: bacteriophage lysin derived from Streptococcus suis, amino acid sequence SEQ ID NO: 1 (245 residues) (protein, listed as Streptococcus suis)
chain: MTTVNEALNNVRAQVGSGVSVGNGECYALASWYERMISPDATVGLGAGVGWVSGAIGDTISAKNIGSSYNWQANGWTVSTSGPFKAGQIVTLGATPGNPYGHVVIVEAVDGDRLTILEQNYGGKRYPVRNYYSAASYRQQVVHYITPPGTVAQSAPNLAGSRSYRETGTMTVTVDALNVRRAPNTSGEIVAVYKRGESFDYDTVIIDVNGYVWVSYIGGSGKRNYVATGATKDGKRFGNAWGTFK
MIC ([1]; Control #1 isolate): (1 μg/mL)/
MIC ([1]; Control #2 isolate): (2 μg/mL)/
MIC ([1]; Control #3 isolate): (2 μg/mL)
MIC ([1]; Mutant #1 (hlgCB near, mprF L291I, rlmH K159R, ΔSCCmec)): (2 μg/mL)
MIC ([1]; Mutant #2 (hlgCB near, graR I158S, rlmH K159R, ΔSCCmec)): (1 μg/mL)
PlySs2 MIC of recovered isolates ([2]; non-selective conditions, remained stable): 1 µg/mL
Number of isolates with Oxacillin MIC 32 μg/mL [2, 3]: 16
Number of isolates with PlySs2 MIC 1 μg/mL [2, 3]: 16
Number of isolates with Oxacillin MIC 32 μg/mL [2, 4]: 18
Number of isolates with Oxacillin MIC ≤2 μg/mL [2, 4]: 6
Number of isolates with PlySs2 MIC 0.5 μg/mL [2, 4]: 3
Number of isolates with PlySs2 MIC 1 μg/mL [2, 4]: 21
Number of isolates with Oxacillin MIC 16 μg/mL [2, 5]: 1
Number of isolates with Oxacillin MIC 32 μg/mL [2, 5]: 23
Number of isolates with PlySs2 MIC 0.5 μg/mL [2, 5]: 1
Number of isolates with PlySs2 MIC 1 μg/mL [2, 5]: 23
Number of isolates with Oxacillin MIC 32 μg/mL [2, 6]: 17
Number of isolates with Oxacillin MIC ≤2 μg/mL [2, 6]: 7
Number of isolates with PlySs2 MIC 1 μg/mL ([2]; non-selective, rabbits given PlySs2 1.4 mg/kg (n = 24)): 24
PlySs2 MIC increase ([2]; selective conditions, isolates after PlySs2 treatment): ≤ 2 fold
Number of isolates with Oxacillin MIC 32 μg/mL [2, 7]: 16
Number of isolates with PlySs2 MIC 1 μg/mL [2, 7]: 14
Number of isolates with PlySs2 MIC 2 μg/mL [2, 7]: 2
Number of isolates with Oxacillin MIC 32 μg/mL [2, 8]: 17
Number of isolates with Oxacillin MIC <2 μg/mL [2, 8]: 7
Number of isolates with PlySs2 MIC 1 μg/mL [2, 8]: 22
Number of isolates with PlySs2 MIC 2 μg/mL [2, 8]: 2
Number of isolates with Oxacillin MIC 32 μg/mL [2, 9]: 21
Number of isolates with PlySs2 MIC 1 μg/mL [2, 9]: 19
Number of isolates with PlySs2 MIC 2 μg/mL [2, 9]: 3
Number of isolates with Oxacillin MIC between <2 and 32 μg/mL (4, 8 or 16) ([2]; selective conditions, PlySs2 0.7 mg/kg (n = 24), column not resolvable): 3
Number of isolates with Oxacillin MIC 32 μg/mL [2, 10]: 21
Number of isolates with Oxacillin MIC <2 μg/mL [2, 10]: 3
Number of isolates with PlySs2 MIC 1 μg/mL [2, 10]: 20
Number of isolates with PlySs2 MIC 2 μg/mL [2, 10]: 4
PlySs2 MIC of recovered isolates ([2]; selective conditions, remained largely stable): 1 µg/mL
Shift in PlySs2 MIC values (MRSA strain MW2; MW2 passaged daily for 21 days in 1.1-fold and 2-fold PlySs2 dilution series, triplicate): 2 fold
MIC of S. aureus strain MW2 (S. aureus strain MW2): 1 µg/mL
